The record followed here is patent US20230257470A1 (published 2023).

What all share (experiment): SPR (Biacore), FcγR over captured antibody; binding amount relative to IL6R-BF648/IL6R-L x100
For orientation: Surface plasmon resonance follows binding to a sensor surface in real time, without labels.

Experiment [1] deals with T1, human FcγRIIa type H (human, UniProt P12318 36-217).
T1 construct: also called FcyRIIaH; FcγRIIa(H)
T1 sequence: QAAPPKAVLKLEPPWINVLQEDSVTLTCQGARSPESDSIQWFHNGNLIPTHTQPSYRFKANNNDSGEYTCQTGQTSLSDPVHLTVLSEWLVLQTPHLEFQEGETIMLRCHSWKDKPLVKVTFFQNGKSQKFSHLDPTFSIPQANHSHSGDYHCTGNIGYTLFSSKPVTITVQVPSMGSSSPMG

Experiment [2] deals with T2, human FcγRIIIa type V (human, UniProt P08637 17-208, limits assumed).
T2 construct: also called FcyRIIIa; FcγRIIIaV

For experiment [3], the target named is T3, human FcγRIIb (human, UniProt P31994 43-217, limits assumed).
T3 construct: also called FcyRIfb; FcγIIB
T3 sequence: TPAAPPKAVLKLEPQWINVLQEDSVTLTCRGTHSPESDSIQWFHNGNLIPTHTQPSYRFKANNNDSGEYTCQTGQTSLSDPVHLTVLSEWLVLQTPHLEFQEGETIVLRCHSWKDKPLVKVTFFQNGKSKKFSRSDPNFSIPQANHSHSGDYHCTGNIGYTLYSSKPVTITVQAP

In experiment [4] the target is T4, human FcγRIa (human, UniProt P12314 16-292, limits assumed).
T4 construct: also called FcyRIa; CD64
T4 sequence (P12314 16-292 limits assumed): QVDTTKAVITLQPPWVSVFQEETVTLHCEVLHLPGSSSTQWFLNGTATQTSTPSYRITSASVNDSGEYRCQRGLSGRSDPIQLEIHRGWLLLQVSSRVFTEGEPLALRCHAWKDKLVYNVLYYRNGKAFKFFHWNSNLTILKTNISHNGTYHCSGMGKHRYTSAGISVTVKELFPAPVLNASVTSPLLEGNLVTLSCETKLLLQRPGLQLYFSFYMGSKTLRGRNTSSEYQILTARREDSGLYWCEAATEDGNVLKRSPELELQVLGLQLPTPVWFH

T2 sequence (P08637 other isoform, or with tags, fused parts or gaps limits assumed): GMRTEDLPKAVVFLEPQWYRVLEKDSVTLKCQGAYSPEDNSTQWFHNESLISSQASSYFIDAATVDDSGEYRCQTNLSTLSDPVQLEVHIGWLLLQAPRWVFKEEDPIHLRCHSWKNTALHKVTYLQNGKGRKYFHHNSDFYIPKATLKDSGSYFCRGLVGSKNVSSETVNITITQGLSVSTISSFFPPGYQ

B1: IL6R-BF648/IL6R-L (antibody, human IgG1, name in EU numbering)
heavy: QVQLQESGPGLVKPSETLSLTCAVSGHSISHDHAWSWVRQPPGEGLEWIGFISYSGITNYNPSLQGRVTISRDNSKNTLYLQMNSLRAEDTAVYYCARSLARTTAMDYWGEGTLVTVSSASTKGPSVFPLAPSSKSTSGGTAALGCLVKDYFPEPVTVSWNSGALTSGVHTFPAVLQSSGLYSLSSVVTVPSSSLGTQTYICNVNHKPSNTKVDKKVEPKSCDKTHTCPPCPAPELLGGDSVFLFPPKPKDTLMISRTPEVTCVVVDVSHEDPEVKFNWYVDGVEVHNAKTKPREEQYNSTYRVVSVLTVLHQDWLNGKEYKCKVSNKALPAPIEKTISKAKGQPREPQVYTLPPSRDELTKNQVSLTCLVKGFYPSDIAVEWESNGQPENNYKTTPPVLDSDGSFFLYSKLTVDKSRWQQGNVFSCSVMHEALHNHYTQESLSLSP
light: DIQMTQSPSSLSASVGDRVTITCRASQDISSYLNWYQQKPGKAPKLLIYYTSRLHSGVPSRFSGSGSGTDFTFTISSLQPEDIATYYCQQGNTLPYTFGQGTKVEIK
notes: Alterations are those introduced into IL6R-B3
On to B1, for which the relative binding in experiment [1], in experiment [2], in experiment [3] and in experiment [4] was 100 % of IL6R-BF648/IL6R-L in each case.

B2: IL6R-2B172/IL6R-L (antibody, human IgG1, name in EU numbering)
heavy: QVQLQESGPGLVKPSETLSLTCAVSGHSISHDHAWSWVRQPPGEGLEWIGFISYSGITNYNPSLQGRVTISRDNSKNTLYLQMNSLRAEDTAVYYCARSLARTTAMDYWGEGTLVTVSSASTKGPSVFPLAPSSKSTSGGTAALGCLVKDYFPEPVTVSWNSGALTSGVHTFPAVLQSSGLYSLSSVVTVPSSSLGTQTYICNVNHKPSNTKVDKKVEPKSCDKTHTCPPCPAPELLGGDSVFLFPPKPKDTLMISRTPEVTCVVVDVSHEDPEVKFNWYVDGVEVHNAKTKPREEQYNSTYRVVSVLTVLHQDWLNGKEYKCKMSNKALPAPIEKTISKAKGQPREPQVYTLPPSRDELTKNQVSLTCLVKGFYPSDIAVEWESNGQPENNYKTTPPVLDSDGSFFLYSKLTVDKSRWQQGNVFSCSVMHEALHNHYTQESLSLSP
light: DIQMTQSPSSLSASVGDRVTITCRASQDISSYLNWYQQKPGKAPKLLIYYTSRLHSGVPSRFSGSGSGTDFTFTISSLQPEDIATYYCQQGNTLPYTFGQGTKVEIK
For B2, the relative binding in experiment [1] is 179 % of IL6R-BF648/IL6R-L; in experiment [2], 144 % of IL6R-BF648/IL6R-L; in experiment [3], 132 % of IL6R-BF648/IL6R-L; in experiment [4] it was 140 % of IL6R-BF648/IL6R-L.

B3: IL6R-2B169/IL6R-L (antibody, human IgG1, name in EU numbering)
heavy: QVQLQESGPGLVKPSETLSLTCAVSGHSISHDHAWSWVRQPPGEGLEWIGFISYSGITNYNPSLQGRVTISRDNSKNTLYLQMNSLRAEDTAVYYCARSLARTTAMDYWGEGTLVTVSSASTKGPSVFPLAPSSKSTSGGTAALGCLVKDYFPEPVTVSWNSGALTSGVHTFPAVLQSSGLYSLSSVVTVPSSSLGTQTYICNVNHKPSNTKVDKKVEPKSCDKTHTCPPCPAPELLGGDSVFLFPPKPKDTLMISRTPEVTCVVVDVSHEDPEVKFNWYVDGVEVHNAKTKPREEQYNSTYRVVSVLTVLHQDWLNGKEYKCKISNKALPAPIEKTISKAKGQPREPQVYTLPPSRDELTKNQVSLTCLVKGFYPSDIAVEWESNGQPENNYKTTPPVLDSDGSFFLYSKLTVDKSRWQQGNVFSCSVMHEALHNHYTQESLSLSP
light: DIQMTQSPSSLSASVGDRVTITCRASQDISSYLNWYQQKPGKAPKLLIYYTSRLHSGVPSRFSGSGSGTDFTFTISSLQPEDIATYYCQQGNTLPYTFGQGTKVEIK
Regarding B3, the relative binding in experiment [1] was 83 % of IL6R-BF648/IL6R-L; in experiment [2], 94 % of IL6R-BF648/IL6R-L; in experiment [3] it was 104 % of IL6R-BF648/IL6R-L; in experiment [4], 73 % of IL6R-BF648/IL6R-L.

B4: IL6R-BP100/IL6R-L (antibody, human IgG1, name in EU numbering)
heavy: QVQLQESGPGLVKPSETLSLTCAVSGHSISHDHAWSWVRQPPGEGLEWIGFISYSGITNYNPSLQGRVTISRDNSKNTLYLQMNSLRAEDTAVYYCARSLARTTAMDYWGEGTLVTVSSASTKGPSVFPLAPSSKSTSGGTAALGCLVKDYFPEPVTVSWNSGALTSGVHTFPAVLQSSGLYSLSSVVTVPSSSLGTQTYICNVNHKPSNTKVDKKVEPKSCDKTHTCPPCPAPELLGGDSVFLFPPKPKDTLMISRTPEVTCVVVDVAHEDPEVKFNWYVDGVEVHNAKTKPREEQYNSTYRVVSVLTVLHQDWLNGKEYKCKVSNKALPAPIEKTISKAKGQPREPQVYTLPPSRDELTKNQVSLTCLVKGFYPSDIAVEWESNGQPENNYKTTPPVLDSDGSFFLYSKLTVDKSRWQQGNVFSCSVMHEALHNHYTQESLSLSP
light: DIQMTQSPSSLSASVGDRVTITCRASQDISSYLNWYQQKPGKAPKLLIYYTSRLHSGVPSRFSGSGSGTDFTFTISSLQPEDIATYYCQQGNTLPYTFGQGTKVEIK
B4: the relative binding in experiment [1] is 128 % of IL6R-BF648/IL6R-L; in experiment [2], 138 % of IL6R-BF648/IL6R-L; in experiment [3], 110 % of IL6R-BF648/IL6R-L; in experiment [4], 121 % of IL6R-BF648/IL6R-L.

B5: IL6R-BP110/IL6R-L (antibody, human IgG1, name in EU numbering)
heavy: QVQLQESGPGLVKPSETLSLTCAVSGHSISHDHAWSWVRQPPGEGLEWIGFISYSGITNYNPSLQGRVTISRDNSKNTLYLQMNSLRAEDTAVYYCARSLARTTAMDYWGEGTLVTVSSASTKGPSVFPLAPSSKSTSGGTAALGCLVKDYFPEPVTVSWNSGALTSGVHTFPAVLQSSGLYSLSSVVTVPSSSLGTQTYICNVNHKPSNTKVDKKVEPKSCDKTHTCPPCPAPELLGGDSVFLFPPKPKDTLMISRTPEVTCVVVDVSNEDPEVKFNWYVDGVEVHNAKTKPREEQYNSTYRVVSVLTVLHQDWLNGKEYKCKVSNKALPAPIEKTISKAKGQPREPQVYTLPPSRDELTKNQVSLTCLVKGFYPSDIAVEWESNGQPENNYKTTPPVLDSDGSFFLYSKLTVDKSRWQQGNVFSCSVMHEALHNHYTQESLSLSP
light: DIQMTQSPSSLSASVGDRVTITCRASQDISSYLNWYQQKPGKAPKLLIYYTSRLHSGVPSRFSGSGSGTDFTFTISSLQPEDIATYYCQQGNTLPYTFGQGTKVEIK
With B5, the results for the relative binding in experiment [1], in experiment [2] and in experiment [3] were 127 % of IL6R-BF648/IL6R-L, 127 % of IL6R-BF648/IL6R-L and 101 % of IL6R-BF648/IL6R-L, respectively.

B6: IL6R-B3/IL6R-L (antibody, human IgG1)
heavy: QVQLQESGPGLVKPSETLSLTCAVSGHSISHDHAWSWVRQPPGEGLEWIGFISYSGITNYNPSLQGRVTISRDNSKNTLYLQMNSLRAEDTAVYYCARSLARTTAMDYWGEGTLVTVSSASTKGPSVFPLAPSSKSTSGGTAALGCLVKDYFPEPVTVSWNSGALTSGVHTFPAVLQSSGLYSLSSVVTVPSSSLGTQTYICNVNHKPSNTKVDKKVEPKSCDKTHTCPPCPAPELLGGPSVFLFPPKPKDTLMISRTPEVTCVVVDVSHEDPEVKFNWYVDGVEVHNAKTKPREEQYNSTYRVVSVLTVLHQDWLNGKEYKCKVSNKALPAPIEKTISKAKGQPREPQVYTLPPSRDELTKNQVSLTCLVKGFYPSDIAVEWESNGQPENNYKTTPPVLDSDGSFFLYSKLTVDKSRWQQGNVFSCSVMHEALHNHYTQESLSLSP
light: DIQMTQSPSSLSASVGDRVTITCRASQDISSYLNWYQQKPGKAPKLLIYYTSRLHSGVPSRFSGSGSGTDFTFTISSLQPEDIATYYCQQGNTLPYTFGQGTKVEIK
notes: IL6R-G1d with K439E (EU numbering)
For B6, the relative binding in experiment [1] is 1600 % of IL6R-BF648/IL6R-L; in experiment [2], 3260 % of IL6R-BF648/IL6R-L; in experiment [3], 58 % of IL6R-BF648/IL6R-L; in experiment [4], 145 % of IL6R-BF648/IL6R-L.

B7: IL6R-2B002/IL6R-L (antibody, human IgG1, name in EU numbering)
heavy: QVQLQESGPGLVKPSETLSLTCAVSGHSISHDHAWSWVRQPPGEGLEWIGFISYSGITNYNPSLQGRVTISRDNSKNTLYLQMNSLRAEDTAVYYCARSLARTTAMDYWGEGTLVTVSSASTKGPSVFPLAPSSKSTSGGTAALGCLVKDYFPEPVTVSWNSGALTSGVHTFPAVLQSSGLYSLSSVVTVPSSSLGTQTYICNVNHKPSNTKVDKKVEPKSCDKTHTCPPCPAPDLLGGDSVFLFPPKPKDTLMISRTPEVTCVVVDVSHEDPEVKFNWYVDGVEVHNAKTKPREEQYNSTYRVVSVLTVLHQDWLNGKEYKCKVSNKALPAPIEKTISKAKGQPREPQVYTLPPSRDELTKNQVSLTCLVKGFYPSDIAVEWESNGQPENNYKTTPPVLDSDGSFFLYSKLTVDKSRWQQGNVFSCSVMHEALHNHYTQESLSLSP
light: DIQMTQSPSSLSASVGDRVTITCRASQDISSYLNWYQQKPGKAPKLLIYYTSRLHSGVPSRFSGSGSGTDFTFTISSLQPEDIATYYCQQGNTLPYTFGQGTKVEIK
Turning to B7, the relative binding is 147 % of IL6R-BF648/IL6R-L in experiment [1], 147 % of IL6R-BF648/IL6R-L in experiment [2], 116 % of IL6R-BF648/IL6R-L in experiment [3] and 118 % of IL6R-BF648/IL6R-L in experiment [4].

B8: IL6R-2B171/IL6R-L (antibody, human IgG1, name in EU numbering)
heavy: QVQLQESGPGLVKPSETLSLTCAVSGHSISHDHAWSWVRQPPGEGLEWIGFISYSGITNYNPSLQGRVTISRDNSKNTLYLQMNSLRAEDTAVYYCARSLARTTAMDYWGEGTLVTVSSASTKGPSVFPLAPSSKSTSGGTAALGCLVKDYFPEPVTVSWNSGALTSGVHTFPAVLQSSGLYSLSSVVTVPSSSLGTQTYICNVNHKPSNTKVDKKVEPKSCDKTHTCPPCPAPELLGGDSVFLFPPKPKDTLMISRTPEVTCVVVDVSHEDPEVKFNWYVDGVEVHNAKTKPREEQYNSTYRVVSVLTVLHQDWLNGKEYKCKLSNKALPAPIEKTISKAKGQPREPQVYTLPPSRDELTKNQVSLTCLVKGFYPSDIAVEWESNGQPENNYKTTPPVLDSDGSFFLYSKLTVDKSRWQQGNVFSCSVMHEALHNHYTQESLSLSP
light: DIQMTQSPSSLSASVGDRVTITCRASQDISSYLNWYQQKPGKAPKLLIYYTSRLHSGVPSRFSGSGSGTDFTFTISSLQPEDIATYYCQQGNTLPYTFGQGTKVEIK
B8: the relative binding in experiment [1] was 115 % of IL6R-BF648/IL6R-L; in experiment [2], 122 % of IL6R-BF648/IL6R-L; in experiment [3] it was 113 % of IL6R-BF648/IL6R-L; in experiment [4], 116 % of IL6R-BF648/IL6R-L.

B9: IL6R-BP912/IL6R-L (antibody, human IgG1, name in EU numbering)
heavy: QVQLQESGPGLVKPSETLSLTCAVSGHSISHDHAWSWVRQPPGEGLEWIGFISYSGITNYNPSLQGRVTISRDNSKNTLYLQMNSLRAEDTAVYYCARSLARTTAMDYWGEGTLVTVSSASTKGPSVFPLAPSSKSTSGGTAALGCLVKDYFPEPVTVSWNSGALTSGVHTFPAVLQSSGLYSLSSVVTVPSSSLGTQTYICNVNHKPSNTKVDKKVEPKSCDKTHTCPPCPAPELLGGDSVFLFPPKPKDTLMISRTPEVTCVVVDVSHEDPEVKFNWYVDGVEVHNAKTKPREEQYNSTYRVVSVLTVLHQDWLNGKEYKCKVSNKALPRPIEKTISKAKGQPREPQVYTLPPSRDELTKNQVSLTCLVKGFYPSDIAVEWESNGQPENNYKTTPPVLDSDGSFFLYSKLTVDKSRWQQGNVFSCSVMHEALHNHYTQESLSLSP
light: DIQMTQSPSSLSASVGDRVTITCRASQDISSYLNWYQQKPGKAPKLLIYYTSRLHSGVPSRFSGSGSGTDFTFTISSLQPEDIATYYCQQGNTLPYTFGQGTKVEIK
Turning to B9, the figures for the relative binding in experiment [1], in experiment [2] and in experiment [4] were 93 % of IL6R-BF648/IL6R-L, 97 % of IL6R-BF648/IL6R-L and 60 % of IL6R-BF648/IL6R-L, respectively.
